# Measured values from paper PMC3679108, “A Novel Glucagon-Related Peptide (GCRP) and Its Receptor GCRPR Account for Coevolution of Their Family Members in Vertebrates” (PLoS ONE, 2013).
# Read-outs that look alike come from different tables or passages of the source. Ends that are not written are not given here.
# B1: Chicken GLP2 (peptide)
# peptide: HADGTFTSDINKILDDMAAKEFLKWLINTKVTQ
# B2: Chicken GLP1 (peptide)
# peptide: HAEGTYTSDITSYLEGQAAKEFIAWLVNGR
# modifications: also: unexplained 'a' after last residue
# B3: Xenopus GCRP (peptide)
# peptide: HSEGTFSSDLTRYLDKMKAKDFVQWLMN
# B4: Chicken GCRP (peptide)
# peptide: HSEGTFTSDFTRYLDKMKAKDFVHWLINT
# B5: Chicken GIP (peptide)
# peptide: YSEATLASDYSRTMDNMLKKNFVEWLLARREKKSDNVIEPY
# B6: Medaka GCRP (peptide)
# peptide: HTDGMFTSDLTNYLDKMKAKNFVEWLAAIKQQE
# B7: Human GIP (peptide)
# peptide: YAEGTFISDYSIAMDKIHQQDFVNWLLAQKGKKNDWKHNITQ
# B8: Medaka GCG1 (peptide)
# peptide: HSEGTFSNDYSKYLEDRKAQDFVRWLMNN
# How the values were obtained:
# [1] = target: chicken GCRP receptor (chicken)
# [2] = target: Xenopus GCRP receptor (Xenopus); assay: radioligand binding; competitive displacement on HEK293T cells transfected with GCRPR (300 ng DNA/well, 12-well plates); 100,000 cpm 125I-chGCRP without or with various concentrations of cold peptides, 1 h, binding buffer (serum-free DMEM with 0.1% BSA, pH 7.4); IC50 by nonlinear regression
# [3] = target: chicken GCRP receptor (chicken); assay: as above
# [4] = target: chimeric chGCRPR/chGLP1R (chicken)
# [5] = target: chimeric chGCRPR/huGLP1R (chicken | human) (UniProt P43220)
# [6] = target: chicken GCRP receptor (chicken); remark: listed apart in the source
# human GIPR (human) = human GIPR (human) (UniProt P48546)
# human GCGR (human) = human GCGR (human) (UniProt P47871)
# human GLP1R (human) = human GLP1R (human) (UniProt P43220)
# [7] = target: Xenopus GCRP receptor (Xenopus)
# [8] = target: medaka GCRP receptor (medaka)
# [9] = target: Xenopus GCRP receptor (Xenopus); remark: listed apart in the source
# [10] = target: Xenopus GCRP receptor (Xenopus); assay: radioligand binding; competitive displacement on HEK293T cells transfected with GCRPR (300 ng DNA/well, 12-well plates); 100,000 cpm 125I-chGCRP without or with various concentrations of cold peptides, 1 h, binding buffer (serum-free DMEM with 0.1% BSA, pH 7.4); IC50 by nonlinear regression; remark: listed apart in the source
# human GLP2R (human) = human GLP2R (human) (UniProt O95838)
# [11] = target: chicken GCRP receptor (chicken); remark: listed apart in the source
# [12] = target: chicken GCRP receptor (chicken); assay: radioligand binding; competitive displacement on HEK293T cells transfected with GCRPR (300 ng DNA/well, 12-well plates); 100,000 cpm 125I-chGCRP without or with various concentrations of cold peptides, 1 h, binding buffer (serum-free DMEM with 0.1% BSA, pH 7.4); IC50 by nonlinear regression; remark: listed apart in the source
# [13] = target: medaka GCRP receptor (medaka); remark: listed apart in the source
# [14] = target: medaka GCRP receptor (medaka); assay: radioligand binding; competitive displacement on HEK293T cells transfected with GCRPR (300 ng DNA/well, 12-well plates); 100,000 cpm 125I-chGCRP without or with various concentrations of cold peptides, 1 h, binding buffer (serum-free DMEM with 0.1% BSA, pH 7.4); IC50 by nonlinear regression
# [15] = target: medaka GCRP receptor (medaka); remark: listed apart in the source
# [16] = target: medaka GCRP receptor (medaka); assay: radioligand binding; competitive displacement on HEK293T cells transfected with GCRPR (300 ng DNA/well, 12-well plates); 100,000 cpm 125I-chGCRP without or with various concentrations of cold peptides, 1 h, binding buffer (serum-free DMEM with 0.1% BSA, pH 7.4); IC50 by nonlinear regression; remark: listed apart in the source
# Chain of human GLP1R (human) (P43220 24-463): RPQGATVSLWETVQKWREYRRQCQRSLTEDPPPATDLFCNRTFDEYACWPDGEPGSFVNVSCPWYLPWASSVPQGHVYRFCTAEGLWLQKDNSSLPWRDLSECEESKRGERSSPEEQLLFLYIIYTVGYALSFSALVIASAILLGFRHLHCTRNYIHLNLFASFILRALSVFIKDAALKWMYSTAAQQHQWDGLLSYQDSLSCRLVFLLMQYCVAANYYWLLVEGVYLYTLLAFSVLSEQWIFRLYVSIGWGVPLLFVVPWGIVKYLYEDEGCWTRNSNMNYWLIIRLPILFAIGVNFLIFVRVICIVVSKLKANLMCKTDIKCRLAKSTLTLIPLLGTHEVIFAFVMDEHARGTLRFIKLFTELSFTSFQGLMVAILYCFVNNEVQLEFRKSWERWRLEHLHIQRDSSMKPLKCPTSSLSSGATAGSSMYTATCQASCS
# Chain of human GIPR (human) (P48546 22-466): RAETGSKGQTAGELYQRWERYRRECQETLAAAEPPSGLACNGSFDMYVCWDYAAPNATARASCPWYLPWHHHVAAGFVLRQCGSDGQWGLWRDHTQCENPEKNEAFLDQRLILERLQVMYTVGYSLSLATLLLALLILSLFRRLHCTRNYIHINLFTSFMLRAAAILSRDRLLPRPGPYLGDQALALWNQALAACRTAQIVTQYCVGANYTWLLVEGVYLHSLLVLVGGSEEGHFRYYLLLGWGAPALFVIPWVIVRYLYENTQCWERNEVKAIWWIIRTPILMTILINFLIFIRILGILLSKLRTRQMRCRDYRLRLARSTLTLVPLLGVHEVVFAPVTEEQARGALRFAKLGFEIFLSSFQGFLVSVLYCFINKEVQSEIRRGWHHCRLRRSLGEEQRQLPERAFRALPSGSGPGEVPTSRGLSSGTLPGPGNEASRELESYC
# Chain of chimeric chGCRPR/huGLP1R (chicken | human) (P43220 whole entry, change not shown): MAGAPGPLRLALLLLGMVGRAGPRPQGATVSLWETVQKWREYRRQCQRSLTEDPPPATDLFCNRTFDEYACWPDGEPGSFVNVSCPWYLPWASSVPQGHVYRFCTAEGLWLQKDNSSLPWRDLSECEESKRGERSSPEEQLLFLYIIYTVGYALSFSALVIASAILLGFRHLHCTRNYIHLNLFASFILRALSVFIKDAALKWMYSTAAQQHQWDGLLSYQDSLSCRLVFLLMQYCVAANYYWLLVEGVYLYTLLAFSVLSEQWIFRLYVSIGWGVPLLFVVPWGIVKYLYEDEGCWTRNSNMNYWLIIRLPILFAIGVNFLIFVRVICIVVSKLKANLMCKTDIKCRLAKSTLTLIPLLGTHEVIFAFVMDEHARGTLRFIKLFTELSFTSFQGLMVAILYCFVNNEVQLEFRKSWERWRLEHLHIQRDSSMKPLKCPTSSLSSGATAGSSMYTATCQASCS
# Chain of human GCGR (human) (P47871 26-477): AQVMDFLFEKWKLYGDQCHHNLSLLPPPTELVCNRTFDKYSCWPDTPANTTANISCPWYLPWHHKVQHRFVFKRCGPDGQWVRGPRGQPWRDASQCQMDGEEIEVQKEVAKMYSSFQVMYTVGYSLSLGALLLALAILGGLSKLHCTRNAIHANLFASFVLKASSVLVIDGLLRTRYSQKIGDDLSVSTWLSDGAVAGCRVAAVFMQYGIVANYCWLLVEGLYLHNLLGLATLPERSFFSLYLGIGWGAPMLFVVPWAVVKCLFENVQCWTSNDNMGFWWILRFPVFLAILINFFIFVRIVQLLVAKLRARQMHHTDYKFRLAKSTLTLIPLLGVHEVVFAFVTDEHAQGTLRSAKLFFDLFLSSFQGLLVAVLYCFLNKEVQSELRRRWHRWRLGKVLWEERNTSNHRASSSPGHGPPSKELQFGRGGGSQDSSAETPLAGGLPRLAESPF
# Chain of human GLP2R (human) (O95838 whole entry): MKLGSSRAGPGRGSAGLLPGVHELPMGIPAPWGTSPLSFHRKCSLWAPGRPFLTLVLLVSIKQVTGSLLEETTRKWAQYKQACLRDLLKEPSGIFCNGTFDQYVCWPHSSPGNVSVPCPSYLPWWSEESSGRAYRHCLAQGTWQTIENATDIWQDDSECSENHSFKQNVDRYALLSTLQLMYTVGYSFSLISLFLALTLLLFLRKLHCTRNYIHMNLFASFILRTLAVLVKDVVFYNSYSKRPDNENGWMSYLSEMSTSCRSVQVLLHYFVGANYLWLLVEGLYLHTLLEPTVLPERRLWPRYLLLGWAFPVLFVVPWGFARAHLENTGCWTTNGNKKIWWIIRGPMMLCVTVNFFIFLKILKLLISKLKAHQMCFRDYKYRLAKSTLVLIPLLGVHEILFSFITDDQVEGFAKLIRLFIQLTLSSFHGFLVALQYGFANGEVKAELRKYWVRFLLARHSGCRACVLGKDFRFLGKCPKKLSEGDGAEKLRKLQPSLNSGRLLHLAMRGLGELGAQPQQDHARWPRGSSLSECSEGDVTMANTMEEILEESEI
Binder,"CRE-luc reporter, HEK293T cells with the receptor: EC50 [1] [nM]","CRE-luc reporter, HEK293T cells with the receptor: Emax (fold induction) [1]","CRE-luc reporter, HEK293T cells with the receptor: Emax (fold induction) (human GIPR (human))","CRE-luc reporter, HEK293T cells with the receptor: EC50 (human GCGR (human)) [nM]","CRE-luc reporter, HEK293T cells with the receptor: Emax (fold induction) (human GCGR (human))","CRE-luc reporter, HEK293T cells with the receptor: EC50 (human GLP1R (human)) [nM]","CRE-luc reporter, HEK293T cells with the receptor: Emax (fold induction) (human GLP1R (human))","CRE-luc reporter, HEK293T cells with the receptor: EC50 [8] [nM]","CRE-luc reporter, HEK293T cells with the receptor: Emax (fold induction) [8]","CRE-luc reporter, HEK293T cells with the receptor: EC50 [9] [nM]","CRE-luc reporter, HEK293T cells with the receptor: Emax (fold induction) [9]",also measured
B1,33.4,6.26,,,,,,,,,,
B2,,,,,,,,,,,,"IC50 [2]: > 1000 nM; IC50 [3]: > 1000 nM; CRE-luc reporter, HEK293T cells with the receptor: EC50 [4]: 1.52 nM; CRE-luc reporter, HEK293T cells with the receptor: Emax (fold induction) [4]: 12.6; CRE-luc reporter, HEK293T cells with the receptor: EC50 [5]: 2.29 nM; CRE-luc reporter, HEK293T cells with the receptor: Emax (fold induction) [5]: 91.9; CRE-luc reporter, HEK293T cells with the receptor: EC50 [6]: 18.3 nM; CRE-luc reporter, HEK293T cells with the receptor: Emax (fold induction) [6]: 5.8; CRE-luc reporter, HEK293T cells with the receptor: EC50 (chicken GLP1R (chicken)): 0.2 nM; CRE-luc reporter, HEK293T cells with the receptor: Emax (fold induction) (chicken GLP1R (chicken)): 28.2"
B3,1.18,6.25,1.95,182,2.09,> 1000,24.1,30.6,8.1,2.24,30.4,cAMP level by Glosensor-22F luminescence in HEK293T cells with the receptor: EC50 [7]: 46 nM; IC50 [2]: 65.5 nM; IC50 [10]: 63 nM
B4,0.87,6,3.03,42.7,6.32,48.9,19.8,33.7,8.12,5.86,30.1,"CRE-luc reporter, HEK293T cells with the receptor: EC50 (human GLP2R (human)): 592 nM; CRE-luc reporter, HEK293T cells with the receptor: Emax (fold induction) (human GLP2R (human)): 6.32; cAMP level by Glosensor-22F luminescence in HEK293T cells with the receptor: EC50 [11]: 5.8 nM; IC50 [3]: 43.5 nM; CRE-luc reporter, HEK293T cells with the receptor: EC50 [4]: 8.57 nM; CRE-luc reporter, HEK293T cells with the receptor: Emax (fold induction) [4]: 7.3; CRE-luc reporter, HEK293T cells with the receptor: EC50 [5]: 9.44 nM; CRE-luc reporter, HEK293T cells with the receptor: Emax (fold induction) [5]: 62.9; CRE-luc reporter, HEK293T cells with the receptor: EC50 [6]: 0.32 nM; CRE-luc reporter, HEK293T cells with the receptor: Emax (fold induction) [6]: 5.56; CRE-luc reporter, HEK293T cells with the receptor: EC50 (chicken GLP1R (chicken)): 8.03 nM; CRE-luc reporter, HEK293T cells with the receptor: Emax (fold induction) (chicken GLP1R (chicken)): 19.2; IC50 [12]: 43.6 nM"
B5,69.2,6.22,,,,,,,,274,32.4,
B6,68.2,6.93,2.11,175,2.27,156,20.9,6.84,7.9,94.6,32,"cAMP level by Glosensor-22F luminescence in HEK293T cells with the receptor: EC50 [13]: 1.15 nM; IC50 [14]: 327 nM; CRE-luc reporter, HEK293T cells with the receptor: EC50 [15]: 6.76 nM; IC50 [16]: 320 nM"
B7,,,5.21,,,,,,,,,
B8,,,,,,,,108,4.26,,,
